{"source": "paper PMC4408062", "target": "Recombinant human PCSK9 (proprotein convertase subtilisin/kexin type 9) (human) (UniProt Q8NBP7)", "sequence (Q8NBP7 31-692)": "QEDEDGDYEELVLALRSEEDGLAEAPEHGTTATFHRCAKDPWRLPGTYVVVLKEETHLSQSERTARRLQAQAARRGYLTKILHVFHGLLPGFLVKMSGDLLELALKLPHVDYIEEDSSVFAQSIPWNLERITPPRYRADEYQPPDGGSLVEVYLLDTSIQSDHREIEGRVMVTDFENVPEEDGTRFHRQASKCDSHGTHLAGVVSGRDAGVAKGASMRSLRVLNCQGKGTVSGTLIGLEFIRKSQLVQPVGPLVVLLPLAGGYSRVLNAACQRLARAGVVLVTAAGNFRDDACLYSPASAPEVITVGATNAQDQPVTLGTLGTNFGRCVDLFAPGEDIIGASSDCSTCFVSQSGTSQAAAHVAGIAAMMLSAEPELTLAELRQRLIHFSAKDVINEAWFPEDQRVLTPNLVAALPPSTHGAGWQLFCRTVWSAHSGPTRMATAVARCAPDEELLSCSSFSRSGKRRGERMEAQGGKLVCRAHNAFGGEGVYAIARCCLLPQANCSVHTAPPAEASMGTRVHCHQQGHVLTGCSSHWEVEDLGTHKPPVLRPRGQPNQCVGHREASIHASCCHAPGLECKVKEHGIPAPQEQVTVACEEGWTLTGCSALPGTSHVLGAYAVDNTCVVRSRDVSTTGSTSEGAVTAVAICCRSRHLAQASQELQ", "data": [{"substance": "LDL (low density lipoprotein particle)", "values": [{"measurement": "internalisation of PCSK9-488/J16 complexes in APLP2 siRNA treated HepG2 cells with 2.5 μg/ml LDL", "result": 2.5, "unit": "fold"}]}]}
